Experimental data published in publication PMC8494748.

Target: T1, MS2 bacteriophage coat protein (bacteriophage MS2), P03612
T1 chain: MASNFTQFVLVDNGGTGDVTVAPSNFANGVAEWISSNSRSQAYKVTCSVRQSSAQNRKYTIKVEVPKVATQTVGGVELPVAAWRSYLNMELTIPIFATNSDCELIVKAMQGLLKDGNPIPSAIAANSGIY
Experiment: SDS-PAGE with Western blot; 12.5% acrylamide gel, polyclonal anti-MS2 coat protein antibody; BL21(DE3) bacterial lysate; bands of 14 and 28 kDa
Details: remark: other sources report otherwise

B1: MS2 bacteriophage coat protein, P03612 1-130 (natural protein)
chain: T1 chain
stoichiometry N: 2
